The results in this text go back to US20250319216A1, “RADIOPHARMCEUTICAL COMPLEXES TARGETING PROSTATE-SPECIFIC MEMBRANE ANTIGEN AND ITS COMBINATIONS” (Bayer Aktiengesellschaft, priority 2022, published 2025).

One data set concerns 22Rv1 tumors. Briefly: In vivo efficacy in 22Rv1 prostate cancer model. Further details: species or system mice. Conditions: 22Rv1, day 16. The procedure:
The in vivo antitumor efficacy of 225Ac-pelgi in combination with darolutamide was evaluated in the androgen-independent prostate cancer model 22Rv1.

Data set [1] concerns PSMA expression in VCaP cells. Briefly: PSMA protein expression by flow cytometry. Format: cell-based. Conditions: androgen-dependent VCaP cells, 0.08-5 μM darolutamide for 7 days. As for the experimental part:
(§1) The effect of darolutamide and 225Ac-pelgifatamab on PSMA mRNA and protein expression in vitro was studied in VCaP and 22Rv1 prostate cancer cells. To assess PSMA protein expression, VCaP and 22Rv1 cells were treated with 0.08-5 μM darolutamide for 7 days and PSMA expression was determined by flow cytometry using the murine PSMA-specific monoclonal antibody (mAb) J591 (prepared in-house). To assess FOLH1 gene expression, 22Rv1 cells were treated with 2 μM darolutamide and/or 0.15 kBq/mL 225Ac-pelgifatamab for 24 or 48 h. RNA was extracted with the RNeasy Plus Mini Kit (Qiagen), transcribed to cDNA using SuperScript IV VILO Master Mix (Invitrogen), and analyzed by qPCR.

Data set [2] has as its system PSMA expression in 22Rv1 cells. Briefly: PSMA protein expression by flow cytometry. As to conditions: androgen-independent 22Rv1 cells, 0.08-5 μM darolutamide for 7 days. Format: cell-based. As for the experimental part: as §1
(Flow cytometry measures light scatter and fluorescence of single cells or particles in a stream.)

Data set [3] deals with PSMA expression in 22Rv1 tumors. Briefly: In vivo PSMA protein expression in 22Rv1 tumors by flow cytometry. As to conditions: isolated 22Rv1 tumors, darolutamide 100 mg/kg BID p.o. for 18 days. Further details: species or system mice. The procedure: In vivo expression of PSMA protein was evaluated in 22Rv1 prostate tumor-bearing male nude (nu/nu) mice treated with vehicle or darolutamide (100 mg/kg, BID, p.o) for 18 days. 22Rv1 tumors were extracted (n=2) and dissociated tumor cells were analyzed by flow cytometry using the J591 antibody.

Data set [4] can be described thus: Size exclusion chromatography (SEC-UV) of Pelgifatamab TACs. The format is physicochemical. As to conditions: SEC-UV of TAC after radiolabeling. The procedure: Purity of the TACs were determined by SEC-UV. The method separates higher aggregate, dimer and fragments from the ACC monomer. The separation was done using a Acquity UPLC Protein BEH SEC, 1.7 μm, 200 Å, 4.6×300 mm column operated at 30° C. The mobile phase was 170 mM Ammonium acetate and 300 mM NaCl containing 10% 2-propanol and 0.1 mM DCTA. The flowrate was 0.3 mL/min, and the ACCs were detected at UV 280 nm. The analysis was performed on an Agilent 1200 series HPLC with 35 μL injections.
On the technique in general: Size exclusion chromatography separates by hydrodynamic size, large species first.

Data set [5] can be described thus: Radiochemical purity (RCP) of Pelgifatamab TACs by iTLC. The format is physicochemical. Conditions: for RCP (radiochemical purity): iTLC after Ac-225 labeling at 2 MBq/mg, macropa at room temperature, DOTA at 60° C., one hour. As for the experimental part: The mixture was incubated for one hour at room temperature for macropa-Pelgifatamab while the two DOTA-Pelgifatamab ACCs were incubated for one hour at 60° C. on a heating block. The RCP of the TACs was measured by instant thin layer chromatography using citrate buffer for elution, three replicates for each sample. […] The measurement of radioactivity was done with a Digital Gamma-Ray Spectrometer (DSPEC-50, Ortec). The activities were measured at least 6 hours after radiolabeling to allow daughter nuclides to be in equilibrium with Ac-225. […] Pelgifatamab-macropa and the PSMA binding antibody J591 conjugated with DOTA were both labeled with actinium-225. Labeling was performed at room temperature. J591-DOTA was also labeled at 60° C. Radiochemical purity was determined by instant thin-layer chromatography (iTLC). Labeled and free actinium-225 were counted in a germanium detector using actinium-225 specific energy lines. Actinium-225-labeling of pelgifatamab was efficient at room temperature as compared with actinium-225-labeling of the murine monoclonal PSMA antibody J591 (225Ac-J591, FIG. 8).

The next data set deals with CDKN1A. Briefly: Gene expression by RT-qPCR in 22Rv1 cells. Format: cell-based. As to conditions: 24 or 48 h. (Real-time PCR tracks product formation cycle by cycle.)
The next data set deals with DU-145 cells. As to conditions: PSMA negative DU-145 cells, 5 days.
A further data set has as its system LNCaP cells. Conditions: 5 days.
The next data set concerns XRCC2. Briefly: Gene expression by RT-qPCR in 22Rv1 cells. Format: cell-based. As to conditions: 24 or 48 h.
Data set [6] deals with PSMA-expressing prostate cancer xenograft model MDA PCa 2b. As to conditions: 72-504 hours. The procedure: Biodistribution of Ac-225-macropa-Pelgifatamab was investigated in the PSMA-expressing prostate cancer xenograft model MDA PCa 2b. Female RJ: NMRI-Foxn1nu/nu mice were implanted with testosterone pellets subcutaneously and were inoculated with 1×10^6 MDA PCa 2b cells on the right flank. Animals were pre-treated with 200 μg/mouse unspecific IgG2a antibody 24 hours prior to hot dosing. Animals were treated with 300 kBq/kg Ac-225-macropa-Pelgifatamab IV at a total protein dose of 0.75 mg/kg. In a separate in vivo study the xenograft model MDA PCa 2b was treated with 250 kBq/kg Ac-225-DOTA-Pelgifatamab at a protein dose of 0.14 mg/kg. In both studies, animals were sacrificed 72, 168, 336, and 504 hours post treatment and 225Ac in blood, tumor, liver, kidney, spleen and femur was determined.

Data set [7] has as its system LNCaP prostate cancer model. Briefly: In vivo antitumor efficacy in LNCaP model. Details: species or system mice. As to conditions: total antibody dose 0.75 mg/kg. The procedure:
Antitumor efficacy of 225Ac-pelgifatamab was assessed in the LNCaP prostate cancer model: Male SCID mice (6 weeks, 22 g, Janvier Labs) were implanted s.c. with testosterone pellets (12.5 mg, 4 mm) and 1-3 days later, inoculated s.c. with 5×10^6 LNCaP cells. When the tumors reached an average size of 160 mm^3, mice were randomized (n=10 mice/group), and two days later, treated with vehicle or a single i.v. dose of ^225Ac-pelgifatamab (70, 125, or 250 kBq/kg, total antibody dose 0.75 mg/kg). The study was terminated on day 112 after tumor cell inoculation.

For the next data set, the system named is 22Rv1 cells. Conditions: 22Rv1 cells (printed 22R1), 5 days.
Another data set concerns C4-2 cells. As to conditions: 5 days.
A further data set relates to PC-3 cells. As to conditions: PSMA negative PC-3 cells, 5 days.
In a further data set the test system is KUCaP-1 tumors. Briefly: In vivo antitumor efficacy in KUCaP-1 model. Details: species or system mice. From the text:
In a KUCaP-1 efficacy study, male scid/scid mice (8 weeks, 22 g, Janvier Labs) were implanted s.c. with 5×5×5 mm KUCaP-1 tumor fragments. When the tumors reached an average size of 220 mm^3, mice were randomized (n=9-10 mice/group), and the next day, treated with vehicle or a single i.v. injection of isotype control (300 kBq/kg, […] mg/kg). In addition, for one treatment group, tumors were allowed to reach a size of 470 mm^3, before treatment with a single dose of 300 kBq/kg ^225Ac-pelgi. The study was terminated on day 72 after tumor cell inoculation.

Data set [8] deals with C4-2 prostate cancer cells xenograft. Briefly: In vivo efficacy study in C4-2 xenograft. Further details: species or system mice. As to conditions: single dose IV 300 kBq/kg, total antibody dose 0.14 mg/kg. As for the experimental part:
The compounds Ac-225-macropa-Pelgifatamab, Ac-225-DOTA-Pelgifatamab and isotype-macropa were labeled with 225Ac. Mice xenografted with C4-2 prostate cancer cells were treated with a single dose IV of 300 kBq/kg with a total antibody dose of 0.14 mg/kg. […] Body weight loss was less than 10% for all targeted treatment groups. Effects on the hematopoietic system were determined by WBC counts at the end of the experiment (FIG. 16 (C)).

Setting [9] is: 300 kBq/kg IV, 0.75 mg/kg total protein.

Marks after values point to notes of the source that are not given here.

Experimental for C4-2 cells: (§2) Cells were treated for 5 days and subsequentially cell viability was determined using CellTiterGlo (Promega).
Experimental for DU-145 cells: as §2
Experimental for LNCaP cells: as §2
Experimental for PC-3 cells: as §2

In the case of `CC(O)c1cc(C(=O)N[C@@H](C)Cn2ccc(-c3ccc(C#N)c(Cl)c3)n2)[nH]n1` (some centres unmarked) [Darolutamide, darolutamide], in the data set on 22Rv1 tumors (100 mg/kg, BID, p.o.), the T/C is 0.78. Besides, the figures for the “induction of PSMA expression” value in data set [1] and in data set [2] were “more than 10 fold” and > 2 fold, respectively. Also, the “increase in PSMA expression compared with vehicle” value in data set [3] came to 50 fold.
Ac-225-DOTA-Pelgifatamab CAR 5.7: in data set [4], the Aggregate was 18.4 Area % (UV), the Dimer was 3.0 Area % (UV) and the Monomer is recorded as 78.6 Area % (UV). Also, the “RCP (radiochemical purity)” value in data set [5] is 99.2%.
Turning to Ac-225-DOTA-Pelgifatamab CAR 12.7, in [4], the Aggregate is given as 30.5 Area % (UV), the Dimer is given as 4.8 Area % (UV) and the Monomer is 64.7 Area % (UV). Besides, in data set [5], the “RCP (radiochemical purity)” value is given as 99.5%.
On to Ac-225-macropa-Pelgifatamab, for which the “RNA expression of CDKN1A” value with CDKN1A was “increased”. Further, in [4], the Dimer was 0.5 Area % (UV). For the same compound, the Monomer in [4] was 99.5 Area % (UV). In [5], the “RCP (radiochemical purity)” value turned out to be 99.9%. The radiochemical purity in data set [5] (iTLC after radiolabeling at room temperature (FIG. 8)) was found to be 100%. Further, the cytotoxicity result with DU-145 cells is given as “little cytotoxicity”; with LNCaP cells, “Strong cytotoxicity”; in the data set on 22Rv1 cells, “Strong cytotoxicity”; with C4-2 cells it was “Strong cytotoxicity”; in the data set on PC-3 cells, “little cytotoxicity”. Further, the “expression of XRCC2” value in the data set on XRCC2 is “decreased”. Besides, the “radioactivity in the liver compared with 225Ac-DOTA-Pelgifatamab” value in data set [6] is “lower and over time decreasing radioactivity”. In addition, the “uptake in the spleen compared with 225Ac-DOTA-Pelgifatamab” value in [6] is listed as “less uptake”. Further, the “accumulation in normal organs” value in data set [6] (setting [9]) is “generally low and transient”. Further, in [6] (setting [9]), the “tumor accumulation of 225Ac” value is “strong and persistent tumor accumulation”. Besides, the “clearance from the bone compared with 225Ac-DOTA-Pelgifatamab” value in data set [6] (femur) is listed as “improved clearance”. Further, the T/C with 22Rv1 tumors (75 kBq/kg, single dose, i.v.) was 0.71; in the data set on 22Rv1 tumors (300 kBq/kg, single dose, i.v.) it was 0.41 ***. The “T/Cvolume (treatment/control) ratio” value in [7] (70 kBq/kg single dose i.v.), in data set [7] (125 kBq/kg single dose i.v.) and in data set [7] (250 kBq/kg single dose i.v.) was 0.00 throughout. Besides, the T/Cvolume ratio stood at 0.55 in the data set with KUCaP-1 tumors (75 kBq/kg single dose), 0.44 with KUCaP-1 tumors (150 kBq/kg single dose) and 0.26 in the data set on KUCaP-1 tumors (300 kBq/kg single dose). The “effect on large tumors” value in the data set with KUCaP-1 tumors (single dose 300 kBq/kg, tumors 470 mm^3 at treatment start) is on record as “induced tumor regression”. The “antitumor activity compared with Ac-225-DOTA-Pelgifatamab” value in [8] is reported as “higher antitumor activity”.
